{"source": "IntAct's records for PubMed 31515488", "parents": {"B1": {"name": "Tektin-4 (Homo sapiens), Q8WW24 (parent)", "chain": "MAQTVPPCELPCKEYDVARNTGAYTSSGLATASFRTSKYLLEEWFQNCYARYHQAFADRDQSERQRHESQQLATETQALAQRTQQDSTRTVGERLQDTHSWKSELQREMEALAAETNLLLAQKQRLERALDATEVPFSITTDNLQCRERREHPNLVRDHVETELLKEAELIRNIQELLKRTIMQAVSQIRLNREHKETCEMDWSDKMEAYNIDETCGRHHSQSTEVQAHPYSTTFQESASTPETRAKFTQDNLCRAQRERLASANLRVLVDCILRDTSEDLRLQCDAVNLAFGRRCEELEDARYKLHHHLHKTLREITDQEHNVAALKQAIKDKEAPLHVAQTRLYLRSHRPNMELCRDAAQFRLLSEVEELNMSLTALREKLLEAEQSLRNLEDIHMSLEKDIAAMTNSLFIDRQKCMAHRTRYPTILQLAGYQ", "partner": "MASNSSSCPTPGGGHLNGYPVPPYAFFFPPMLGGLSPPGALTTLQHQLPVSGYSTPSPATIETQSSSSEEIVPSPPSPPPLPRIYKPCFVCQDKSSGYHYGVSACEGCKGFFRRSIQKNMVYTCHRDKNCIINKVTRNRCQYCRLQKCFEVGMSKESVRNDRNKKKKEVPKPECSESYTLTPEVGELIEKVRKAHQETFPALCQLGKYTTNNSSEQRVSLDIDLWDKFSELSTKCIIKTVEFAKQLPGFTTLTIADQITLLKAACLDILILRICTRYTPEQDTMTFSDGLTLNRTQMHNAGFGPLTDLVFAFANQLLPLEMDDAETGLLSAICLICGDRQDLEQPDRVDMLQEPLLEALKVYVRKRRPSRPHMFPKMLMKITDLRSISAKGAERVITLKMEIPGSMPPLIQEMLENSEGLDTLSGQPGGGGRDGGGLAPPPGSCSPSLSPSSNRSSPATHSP"}, "B2": {"name": "Protein BANP (Homo sapiens), Q8N9N5 (parent)", "chain": "MMSEHDLADVVQIAVEDLSPDHPVVLENHVVTDEDEPALKRQRLEINCQDPSIKTICLRLDSIEAKLQALEATCKSLEEKLDLVTNKQHSPIQVPMVAGSPLGATQTCNKVRCVVPQTTVILNNDRQNAIVAKMEDPLSNRAPDSLENVISNAVPGRRQNTIVVKVPGQEDSHHEDGESGSEASDSVSSCGQAGSQSIGSNVTLITLNSEEDYPNGTWLGDENNPEMRVRCAIIPSDMLHISTNCRTAEKMALTLLDYLFHREVQAVSNLSGQGKHGKKQLDPLTIYGIRCHLFYKFGITESDWYRIKQSIDSKCRTAWRRKQRGQSLAVKSFSRRTPNSSSYCPSEPMMSTPPPASELPQPQPQPQALHYALANAQQVQIHQIGEDGQVQVGHLHIAQVPQGEQVQITQDSEGNLQIHHVGQDGQLLEATRIPCLLAPSVFKASSGQVLQGAQLIAVASSDPAAAGVDGSPLQGSDIQVQYVQLAPVSDHTAGAQTAEALQPTLQPEMQLEHGAIQIQ", "partner": "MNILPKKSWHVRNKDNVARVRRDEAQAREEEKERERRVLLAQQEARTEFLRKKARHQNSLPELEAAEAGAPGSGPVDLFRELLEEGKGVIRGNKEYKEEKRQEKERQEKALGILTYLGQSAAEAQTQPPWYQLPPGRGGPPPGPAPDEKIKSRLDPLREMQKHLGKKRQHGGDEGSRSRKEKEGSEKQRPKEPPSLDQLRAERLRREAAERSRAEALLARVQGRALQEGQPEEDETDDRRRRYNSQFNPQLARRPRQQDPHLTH"}, "B3": {"name": "Microtubule-associated tumor suppressor candidate 2 (Homo sapiens), Q5JR59-3 (parent)", "chain": "MGHCCCKPYNCLQCLDKTNESALVKEKELSIELANIRDEVAFHTAKCEKLQKEKEELERRFEDEVKRLGWQQQAELQELEERLQLQFEAEMARLQEEHGDQLLSIRCQHQEQVEDLTASHDAALLEMENNHTVAITILQDDHDHKVQELMSTHELEKKELEENFEKLRLSLQDQVDTLTFQSQSLRDRARRFEEALRKNTEEQLEIALAPYQHLEEDMKSLKQVLEMKNQQIHEQEKKILELEKLAEKNIILEEKIQVLQQQNEDLKARIDQNTVVTRQLSEENANLQEYVEKETQEKKRLSRTNEELLWKLQTGDPTSPIKLSPTSPVYRGSSSGPSSPARVSTTPR", "partner": "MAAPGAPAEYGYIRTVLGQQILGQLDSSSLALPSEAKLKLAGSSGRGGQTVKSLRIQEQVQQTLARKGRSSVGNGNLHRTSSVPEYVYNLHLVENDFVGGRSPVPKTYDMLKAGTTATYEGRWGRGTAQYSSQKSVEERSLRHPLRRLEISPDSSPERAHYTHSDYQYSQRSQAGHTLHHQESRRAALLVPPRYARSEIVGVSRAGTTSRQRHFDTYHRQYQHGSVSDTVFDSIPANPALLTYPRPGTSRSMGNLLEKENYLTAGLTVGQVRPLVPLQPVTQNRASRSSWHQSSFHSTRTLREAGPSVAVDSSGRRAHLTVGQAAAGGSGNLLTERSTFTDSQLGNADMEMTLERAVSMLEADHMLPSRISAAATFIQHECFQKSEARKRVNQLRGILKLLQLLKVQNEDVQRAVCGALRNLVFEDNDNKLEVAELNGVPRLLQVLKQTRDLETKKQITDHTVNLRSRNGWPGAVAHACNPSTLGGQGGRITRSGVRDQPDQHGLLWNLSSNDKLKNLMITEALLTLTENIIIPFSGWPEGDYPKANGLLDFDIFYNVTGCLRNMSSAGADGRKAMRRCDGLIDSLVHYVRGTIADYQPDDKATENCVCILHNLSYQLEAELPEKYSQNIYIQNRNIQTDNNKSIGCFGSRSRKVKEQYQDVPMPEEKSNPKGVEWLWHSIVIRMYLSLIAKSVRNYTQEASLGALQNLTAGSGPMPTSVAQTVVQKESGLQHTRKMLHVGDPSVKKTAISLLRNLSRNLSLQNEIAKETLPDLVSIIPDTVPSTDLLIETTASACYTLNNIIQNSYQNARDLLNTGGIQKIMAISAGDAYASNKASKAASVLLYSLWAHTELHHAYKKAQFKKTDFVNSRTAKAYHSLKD"}, "B4": {"name": "RING finger protein 11 (Homo sapiens), Q9Y3C5 (parent)", "chain": "MGNCLKSPTSDDISLLHESQSDRASFGEGTEPDQEPPPPYQEQVPVPVYHPTPSQTRLATQLTEEEQIRIAQRIGLIQHLPKGVYDPGRDGSEKKIRECVICMMDFVYGDPIRFLPCMHIYHLDCIDDWLMRSFTCPSCMEPVDAALLSSYETN"}, "B5": {"name": "Spermatogenesis-associated protein 2 (Homo sapiens), Q9UM82 (parent)", "chain": "MGKPSSMDTKFKDDLFRKYVQFHESKVDTTTSRQRPGSDECLRVAASTLLSLHKVDPFYRFRLIQFYEVVESSLRSLSSSSLRALHGAFSMLETVGINLFLYPWKKEFRSIKTYTGPFVYYVKSTLLEEDIRAILSCMGYTPELGTAYKLRELVETLQVKMVSFELFLAKVECEQMLEIHSQVKDKGYSELDIVSERKSSAEDVRGCSDALRRRAEGREHLTASMSRVALQKSASERAAKDYYKPRVTKPSRSVDAYDSYWESRKPPLKASLSLRKEPVATDVGDDLKDEIIRPSPSLLTMASSPHGSPDVLPPASPSNGPALLRGTYFSTQDDVDLYTDSEPRATYRRQDALRPDVWLLRNDAHSLYHKRSPPAKESALSKCQSCGLSCSSSLCQRCDSLLTCPPASKPSAFPSKASTHDSLAHGASLREKYPGQTQGLDRLPHLHSKSKPSTTPTSRCGFCNRPGATNTCTQCSKVSCDACLSAYHYDPCYKKSELHKFMPNNQLNYKSTQLSHLVYR"}, "B6": {"name": "Transcription factor 12 (Homo sapiens), Q99081 (parent)", "chain": "MNPQQQRMAAIGTDKELSDLLDFSAMFSPPVNSGKTRPTTLGSSQFSGSGIDERGGTTSWGTSGQPSPSYDSSRGFTDSPHYSDHLNDSRLGAHEGLSPTPFMNSNLMGKTSERGSFSLYSRDTGLPGCQSSLLRQDLGLGSPAQLSSSGKPGTAYYSFSATSSRRRPLHDSAALDPLQAKKVRKVPPGLPSSVYAPSPNSDDFNRESPSYPSPKPPTSMFASTFFMQDGTHNSSDLWSSSNGMSQPGFGGILGTSTSHMSQSSSYGNLHSHDRLSYPPHSVSPTDINTSLPPMSSFHRGSTSSSPYVAASHTPPINGSDSILGTRGNAAGSSQTGDALGKALASIYSPDHTSSSFPSNPSTPVGSPSPLTGTSQWPRPGGQAPSSPSYENSLHSLQSRMEDRLDRLDDAIHVLRNHAVGPSTSLPAGHSDIHSLLGPSHNAPIGSLNSNYGGSSLVASSRSASMVGTHREDSVSLNGNHSVLSSTVTTSSTDLNHKTQENYRGGLQSQSGTVVTTEIKTENKEKDENLHEPPSSDDMKSDDESSQKDIKVSSRGRTSSTNEDEDLNPEQKIEREKERRMANNARERLRVRDINEAFKELGRMCQLHLKSEKPQTKLLILHQAVAVILSLEQQVRERNLNPKAACLKRREEEKVSAVSAEPPTTLPGTHPGLSETTNPMGHM", "partner": "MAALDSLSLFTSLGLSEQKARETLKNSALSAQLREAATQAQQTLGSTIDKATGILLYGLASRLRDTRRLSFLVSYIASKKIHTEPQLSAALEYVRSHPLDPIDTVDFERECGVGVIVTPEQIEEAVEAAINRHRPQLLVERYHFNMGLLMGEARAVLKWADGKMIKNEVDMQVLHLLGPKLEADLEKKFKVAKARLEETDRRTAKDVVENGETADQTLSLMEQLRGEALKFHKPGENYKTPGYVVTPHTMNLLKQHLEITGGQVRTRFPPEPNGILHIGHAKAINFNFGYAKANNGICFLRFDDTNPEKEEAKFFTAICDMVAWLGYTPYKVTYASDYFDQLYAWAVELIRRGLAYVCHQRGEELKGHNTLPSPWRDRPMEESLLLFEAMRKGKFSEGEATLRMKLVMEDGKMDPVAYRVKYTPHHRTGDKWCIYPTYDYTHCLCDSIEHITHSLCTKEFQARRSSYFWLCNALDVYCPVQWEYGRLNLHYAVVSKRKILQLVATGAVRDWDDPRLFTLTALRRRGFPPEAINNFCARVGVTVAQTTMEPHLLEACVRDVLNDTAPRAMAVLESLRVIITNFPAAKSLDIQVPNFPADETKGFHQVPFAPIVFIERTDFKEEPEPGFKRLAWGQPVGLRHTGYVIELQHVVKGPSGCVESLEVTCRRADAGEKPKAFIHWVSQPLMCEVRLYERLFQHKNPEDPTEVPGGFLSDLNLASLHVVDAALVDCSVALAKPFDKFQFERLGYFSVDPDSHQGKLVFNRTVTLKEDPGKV"}}, "data": [{"variants_of": "B1", "details": "with rara_human RARA", "values": [{"variant": "M374T", "effect of a mutation on the interaction": "with no effect"}, {"variant": "R64W", "effect of a mutation on the interaction": "with no effect"}, {"variant": "C272S", "effect of a mutation on the interaction": "disrupting interaction strength"}, {"variant": "N409K", "effect of a mutation on the interaction": "with no effect"}, {"variant": "I404T", "effect of a mutation on the interaction": "disrupting interaction strength"}, {"variant": "D403N", "effect of a mutation on the interaction": "with no effect"}]}, {"variants_of": "B2", "details": "with leng1_human LENG1, Q96BZ8", "values": [{"variant": "P348S", "effect of a mutation on the interaction": "with no effect"}]}, {"variants_of": "B3", "details": "with pkp2_human PKP2, Q99959", "values": [{"variant": "A89V", "effect of a mutation on the interaction": "with no effect"}]}, {"variants_of": "B4", "details": "with ub2d4_human UBE2D4, Q9Y2X8", "values": [{"variant": "R97W", "effect of a mutation on the interaction": "with no effect"}]}, {"variants_of": "B5", "details": "with traf2_human TRAF2, Q12933", "values": [{"variant": "L443F", "effect of a mutation on the interaction": "disrupting interaction strength"}]}, {"variants_of": "B6", "details": "with syq_human QARS1, P47897", "values": [{"variant": "G300S", "effect of a mutation on the interaction": "with no effect"}]}]}
